Assays:
GorA = molecular target: T1, GorA (Escherichia coli, UniProt P06715); assay: Te0 formation, non-linear fit; assay type: biochemical; details: 1 mM NADPH, 1 mM beta-mercaptoethanol, pH 9, 37 °C; substrate inhibition
T1 construct: gene gor; His-tagged full-length, ASKA clone, HisTrap purified, ~49 kDa

E3 = molecular target: T2, E3 (Escherichia coli, UniProt P0A9P0); assay: Te0 formation, non-linear fit; assay type: biochemical; details: 1 mM NADPH, 1 mM beta-mercaptoethanol, pH 6, 37 °C; substrate inhibition
T2 construct: gene lpdA; His-tagged full-length, ASKA clone, HisTrap purified, ~56 kDa

TrxB = molecular target: T3, TrxB (Escherichia coli, UniProt P0A9P4); assay: Te0 formation, non-linear fit; assay type: biochemical; details: 1 mM NADPH, 1 mM beta-mercaptoethanol, pH 10, 37 °C; substrate inhibition
T3 construct: His-tagged full-length, ASKA clone, HisTrap purified, ~35 kDa

O=[Te](O)O = assay: purified protein; assay type: biochemical, Escherichia coli; details: 1 mM beta-mercaptoethanol

T3 sequence (P0A9P4 2-321): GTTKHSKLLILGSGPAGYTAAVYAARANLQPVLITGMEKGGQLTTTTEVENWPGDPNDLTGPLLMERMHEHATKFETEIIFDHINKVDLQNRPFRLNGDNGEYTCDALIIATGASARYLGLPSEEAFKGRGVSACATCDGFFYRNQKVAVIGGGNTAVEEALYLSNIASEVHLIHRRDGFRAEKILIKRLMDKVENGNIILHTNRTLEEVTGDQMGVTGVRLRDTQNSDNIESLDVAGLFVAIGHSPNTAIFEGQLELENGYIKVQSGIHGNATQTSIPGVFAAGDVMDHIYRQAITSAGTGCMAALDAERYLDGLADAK
T2 sequence (P0A9P0 2-474): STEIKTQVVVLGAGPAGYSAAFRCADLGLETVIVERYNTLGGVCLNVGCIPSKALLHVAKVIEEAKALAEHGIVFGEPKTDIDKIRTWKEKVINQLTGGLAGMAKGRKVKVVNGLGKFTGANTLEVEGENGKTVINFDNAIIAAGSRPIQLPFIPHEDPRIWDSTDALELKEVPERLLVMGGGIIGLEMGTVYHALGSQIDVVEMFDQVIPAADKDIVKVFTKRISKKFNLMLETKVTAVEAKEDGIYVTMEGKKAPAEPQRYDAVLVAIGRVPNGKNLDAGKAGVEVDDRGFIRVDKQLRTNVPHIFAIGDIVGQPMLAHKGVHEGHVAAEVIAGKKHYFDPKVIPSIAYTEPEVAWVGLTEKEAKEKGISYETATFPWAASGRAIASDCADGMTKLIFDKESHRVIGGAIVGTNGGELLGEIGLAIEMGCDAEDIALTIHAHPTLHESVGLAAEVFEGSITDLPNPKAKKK
T1 sequence (P06715 whole entry): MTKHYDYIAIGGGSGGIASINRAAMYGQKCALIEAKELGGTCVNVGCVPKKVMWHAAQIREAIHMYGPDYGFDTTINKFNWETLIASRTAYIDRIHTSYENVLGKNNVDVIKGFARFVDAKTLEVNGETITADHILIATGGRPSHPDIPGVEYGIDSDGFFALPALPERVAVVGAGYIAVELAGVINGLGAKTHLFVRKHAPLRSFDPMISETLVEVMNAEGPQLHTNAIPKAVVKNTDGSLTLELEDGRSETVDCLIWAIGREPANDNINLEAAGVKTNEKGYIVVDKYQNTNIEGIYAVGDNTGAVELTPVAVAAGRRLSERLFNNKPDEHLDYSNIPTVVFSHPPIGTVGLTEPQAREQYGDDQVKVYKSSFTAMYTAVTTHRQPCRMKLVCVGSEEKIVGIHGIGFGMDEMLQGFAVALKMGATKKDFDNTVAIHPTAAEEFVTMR

For `O=[Te](O)O` [tellurite], the “Ki apparent” value (GorA) was 232.7 µM, the “Ki apparent” value (E3) was 63.01 µM and the “Ki apparent” value (TrxB) was 37.13 µM.

AhpF (Escherichia coli K-12) showed a Km (O=[Te](O)O; 1 mM NADH, pH 10, 37 °C) of 819.6 µM and a Vmax (O=[Te](O)O; 1 mM NADH, pH 10, 37 °C) of 77900 µmol/min/mg.

E3 (Escherichia coli K-12) gave a Km (O=[Te](O)O; 1 mM NADPH, pH 6, 37 °C) of 47.94 µM and a Vmax (O=[Te](O)O; 1 mM NADPH, pH 6, 37 °C) of 84.5 µmol/min/mg.

GorA (Escherichia coli K-12) was tested, and the Km (O=[Te](O)O; 1 mM NADPH, pH 9, 37 °C) was 89.47 µM and the Vmax (O=[Te](O)O; 1 mM NADPH, pH 9, 37 °C) was 6310 µmol/min/mg.

NorW (Escherichia coli K-12) showed a Km (O=[Te](O)O; 1 mM NADH, pH 11, 42 °C) of 694.9 µM and a Vmax (O=[Te](O)O; 1 mM NADH, pH 11, 42 °C) of 5350 µmol/min/mg.

TrxB (Escherichia coli K-12) gave a Km (O=[Te](O)O; 1 mM NADPH, pH 10, 37 °C) of 114.5 µM and a Vmax (O=[Te](O)O; 1 mM NADPH, pH 10, 37 °C) of 9590 µmol/min/mg.

YkgC (Escherichia coli K-12) gave a Km (O=[Te](O)O; 1 mM NADH, pH 9, 37 °C) of 517.1 µM and a Vmax (O=[Te](O)O; 1 mM NADH, pH 9, 37 °C) of 2700 µmol/min/mg.

Source: paper PMC4960239, “Flavoprotein-Mediated Tellurite Reduction: Structural Basis and Applications to the Synthesis of Tellurium-Containing Nanostructures” (Frontiers in Microbiology, 2016)
